The subject of assay [1] is naïve pancreatic fibroblasts cultured within D-ECM. As to the kind of experiment: ECM prompted myofibroblastic maintenance (α-SMA / F-actin immunofluorescence), PDAC model. It counts as cell-based, human. As to the method: (§1) ECM prompted myofibroblastic maintenance. Human naïve or assorted murine fibroblasts were incubated for 45 minutes prior to overnight culturing within assorted ECMs, prepared as above, in the presence or absence of 50 μg/ml SNAKA51, 60 μg/m ALULA, 250 μg/m mAb16, or BMAS diluted as instructed by the manufacturer (Millipore, Temecula, Calif.), IgG control, DMSO or small molecule inhibitors FAK (PF573,228) and SRC family kinases (PP2). ECM-induced phenotypes were assessed via RT-qPCR, Western Blot or immunofluorescence.
(§2) Naïve/innate PDAC and RCC patient harvested fibroblasts were cultured overnight within normal (N-ECM) vs. desmoplastic (D-ECM or DECMs that were produced in the presence or absence of TGFβ1-receptor inhibition (D+TGFβi) or vehicle control (D+DMSO). Alternatively, naïve cells cultured within D-ECMs were treated with either TGFβ1-receptor inhibitor (TGFβ-i), vehicle (DMSO), functional blocking antibodies anti-αvβ5 integrin (alula, αvβ5-i), anti-α5β1 integrin (mAb16, α5β1-i), combinations of both functional blocking antibodies (β5-i+α5-i), functional stabilizing anti α5β1 integrin (SNAKA51; α5β1-act) or non-immunized isotypic antibodies (IgG). All samples were subjected to indirect immunofluorescent labeling of desmoplastic marker α-SMA and counterstained with fluorescently labeled phalloidin to detect actin stress fibers (F-actin) and determine the co-localization ratio. Monochromatic “heat map” images (see, FIG. 2A) represent α-SMA intensity values. A 255 tones intensity scale bar is shown to the right. A summary of all measured values is graphed in FIG. 2B. Additional monochromatic images indicative of double labeled staining for α-SMA and F-actin are in FIG. 2C while levels of total α-SMA localized at corresponding stress fibers are plotted in FIG. 2D. Untreated D-ECM conditions were included in all experiments summarized in this figure and serve as normalization (1 arbitrary unit; a.u.) controls. Matching values including statistical significances are listed in accompanying Table 1. All scale bars represent 50 μm. TGFβ activity was needed to maintain functional D-ECM production but was dispensable when testing D-ECM induced responses, while the later were obstructed by αvβ5 integrin inhibition or active α5β1 integrin stabilization.

Assay [2] deals with naïve renal fibroblasts cultured within D-ECM. As to the kind of experiment: ECM prompted myofibroblastic maintenance (α-SMA / F-actin immunofluorescence), RCC model. It counts as cell-based, human. As to conditions: RCC; naïve cells within D-ECM treated with the agent. As to the method:
as §1, §2

Assay [3] addresses alpha-v-beta-5 (αvβ5) integrin, human (human) (UniProt P06756). As to the kind of experiment: cell-based or functional assay.
Assay [4] deals with αvβ5 integrin, murine (murine) (UniProt P43406). As to the kind of experiment: cell-based or functional assay.
The target of assay [5] is alpha-5-beta-1 (α5β1) integrin, human (human) (UniProt P08648). As to the kind of experiment: cell-based or functional assay.
Chain of UniProt P08648 (P08648 42-1049, chain 1 of 2): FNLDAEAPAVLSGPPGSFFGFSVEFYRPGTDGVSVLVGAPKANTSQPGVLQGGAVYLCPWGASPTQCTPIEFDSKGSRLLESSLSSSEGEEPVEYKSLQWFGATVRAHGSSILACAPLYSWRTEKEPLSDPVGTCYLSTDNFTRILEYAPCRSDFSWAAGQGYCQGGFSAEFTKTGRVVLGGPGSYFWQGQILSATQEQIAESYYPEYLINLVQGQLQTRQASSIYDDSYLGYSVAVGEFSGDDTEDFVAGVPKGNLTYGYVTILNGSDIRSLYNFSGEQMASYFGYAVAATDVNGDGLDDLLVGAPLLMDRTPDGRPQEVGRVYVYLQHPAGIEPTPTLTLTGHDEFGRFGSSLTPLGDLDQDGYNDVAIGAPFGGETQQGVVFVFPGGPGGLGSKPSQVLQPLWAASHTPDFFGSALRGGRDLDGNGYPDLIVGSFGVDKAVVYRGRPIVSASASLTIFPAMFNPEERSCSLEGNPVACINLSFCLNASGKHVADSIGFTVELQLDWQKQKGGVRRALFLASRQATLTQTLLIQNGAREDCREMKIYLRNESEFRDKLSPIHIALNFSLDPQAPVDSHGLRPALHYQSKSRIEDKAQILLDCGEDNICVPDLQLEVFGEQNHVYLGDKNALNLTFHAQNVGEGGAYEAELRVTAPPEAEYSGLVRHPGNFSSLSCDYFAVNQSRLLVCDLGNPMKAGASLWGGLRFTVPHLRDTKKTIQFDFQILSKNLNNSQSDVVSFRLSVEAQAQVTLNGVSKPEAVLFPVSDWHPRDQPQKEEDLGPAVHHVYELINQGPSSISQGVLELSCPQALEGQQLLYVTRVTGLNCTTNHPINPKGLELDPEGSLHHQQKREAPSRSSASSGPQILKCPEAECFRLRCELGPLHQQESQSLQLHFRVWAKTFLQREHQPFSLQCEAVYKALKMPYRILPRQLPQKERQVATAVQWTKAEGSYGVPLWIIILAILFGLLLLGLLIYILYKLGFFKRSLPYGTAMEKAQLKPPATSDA
Chain of UniProt P08648 (P05556 21-798, chain 2 of 2, further chain): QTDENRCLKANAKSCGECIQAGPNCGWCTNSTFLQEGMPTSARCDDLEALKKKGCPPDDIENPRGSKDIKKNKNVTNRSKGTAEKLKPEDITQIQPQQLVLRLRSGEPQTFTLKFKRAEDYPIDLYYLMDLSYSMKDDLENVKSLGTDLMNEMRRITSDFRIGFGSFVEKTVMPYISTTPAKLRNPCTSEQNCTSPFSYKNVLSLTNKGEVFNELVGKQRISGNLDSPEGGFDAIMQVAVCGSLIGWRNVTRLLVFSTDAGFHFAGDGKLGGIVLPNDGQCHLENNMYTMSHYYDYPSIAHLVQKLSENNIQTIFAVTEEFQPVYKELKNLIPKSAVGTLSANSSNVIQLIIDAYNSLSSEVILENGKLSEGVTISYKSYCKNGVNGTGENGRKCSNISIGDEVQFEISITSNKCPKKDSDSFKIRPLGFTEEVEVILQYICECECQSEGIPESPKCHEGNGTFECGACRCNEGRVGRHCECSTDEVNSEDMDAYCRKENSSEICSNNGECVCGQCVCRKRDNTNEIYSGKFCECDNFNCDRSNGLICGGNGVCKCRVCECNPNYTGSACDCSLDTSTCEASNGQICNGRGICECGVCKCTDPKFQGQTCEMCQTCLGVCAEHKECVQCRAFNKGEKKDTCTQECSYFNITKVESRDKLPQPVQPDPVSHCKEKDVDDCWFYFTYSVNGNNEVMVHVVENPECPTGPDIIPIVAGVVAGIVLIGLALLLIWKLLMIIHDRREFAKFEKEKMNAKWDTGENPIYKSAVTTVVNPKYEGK

Chain of UniProt P43406 (P43406 31-1044, chain 1 of 2): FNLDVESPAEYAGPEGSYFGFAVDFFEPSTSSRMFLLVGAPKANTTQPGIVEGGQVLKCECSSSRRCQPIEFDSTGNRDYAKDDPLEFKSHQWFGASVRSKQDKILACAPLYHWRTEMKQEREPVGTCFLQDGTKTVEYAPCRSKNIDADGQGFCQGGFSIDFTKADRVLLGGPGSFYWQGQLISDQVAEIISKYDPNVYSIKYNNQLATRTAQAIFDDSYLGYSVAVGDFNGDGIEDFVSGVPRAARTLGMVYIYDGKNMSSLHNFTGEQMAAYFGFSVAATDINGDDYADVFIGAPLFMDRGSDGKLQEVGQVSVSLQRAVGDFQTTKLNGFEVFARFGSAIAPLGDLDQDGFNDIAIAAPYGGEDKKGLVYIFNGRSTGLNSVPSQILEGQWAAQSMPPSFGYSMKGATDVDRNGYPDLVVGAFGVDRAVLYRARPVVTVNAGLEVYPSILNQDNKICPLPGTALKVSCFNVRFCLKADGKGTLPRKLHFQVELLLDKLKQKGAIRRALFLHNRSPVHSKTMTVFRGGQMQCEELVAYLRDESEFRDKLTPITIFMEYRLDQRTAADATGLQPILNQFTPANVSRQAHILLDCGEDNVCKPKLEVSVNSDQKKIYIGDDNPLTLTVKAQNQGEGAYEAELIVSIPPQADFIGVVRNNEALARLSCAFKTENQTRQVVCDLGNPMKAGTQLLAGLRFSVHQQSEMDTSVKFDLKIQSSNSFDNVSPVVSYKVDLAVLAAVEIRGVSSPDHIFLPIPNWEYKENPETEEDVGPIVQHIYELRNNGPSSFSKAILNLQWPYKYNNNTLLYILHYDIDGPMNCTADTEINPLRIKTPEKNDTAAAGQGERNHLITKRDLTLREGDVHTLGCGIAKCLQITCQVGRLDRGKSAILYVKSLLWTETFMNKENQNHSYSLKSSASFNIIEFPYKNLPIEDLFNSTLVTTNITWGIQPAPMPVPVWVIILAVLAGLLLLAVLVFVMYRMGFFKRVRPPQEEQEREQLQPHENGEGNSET
Chain of UniProt P43406 (O70309 24-798, chain 2 of 2, further chain): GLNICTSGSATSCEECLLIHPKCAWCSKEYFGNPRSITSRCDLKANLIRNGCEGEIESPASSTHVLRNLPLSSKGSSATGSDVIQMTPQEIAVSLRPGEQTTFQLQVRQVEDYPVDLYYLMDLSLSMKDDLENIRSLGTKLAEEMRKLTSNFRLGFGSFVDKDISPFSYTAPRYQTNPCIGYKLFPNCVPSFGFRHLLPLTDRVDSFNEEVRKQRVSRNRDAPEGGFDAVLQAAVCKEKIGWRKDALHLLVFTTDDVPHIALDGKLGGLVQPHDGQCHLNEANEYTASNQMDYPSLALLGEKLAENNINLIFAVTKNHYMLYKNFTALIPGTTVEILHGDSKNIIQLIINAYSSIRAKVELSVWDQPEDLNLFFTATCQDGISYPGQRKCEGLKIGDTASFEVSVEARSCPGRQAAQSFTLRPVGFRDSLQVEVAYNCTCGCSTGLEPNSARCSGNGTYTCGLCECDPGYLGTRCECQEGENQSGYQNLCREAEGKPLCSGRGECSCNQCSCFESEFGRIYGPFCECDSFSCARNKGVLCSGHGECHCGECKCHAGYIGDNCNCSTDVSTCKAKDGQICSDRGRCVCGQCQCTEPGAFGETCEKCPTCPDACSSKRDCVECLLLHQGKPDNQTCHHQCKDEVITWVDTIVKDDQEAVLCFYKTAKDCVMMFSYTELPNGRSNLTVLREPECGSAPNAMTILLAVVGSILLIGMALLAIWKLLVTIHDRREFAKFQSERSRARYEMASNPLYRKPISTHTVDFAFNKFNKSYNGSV

Take `CC(C)(C)n1nc(-c2ccc(Cl)cc2)c2c(N)ncnc21` [PP2]: the “D-ECM induced myofibroblastic phenotype (α-SMA expression / stress fiber localization), in words” value in assay [1] (PDAC, naïve cells within D-ECM treated with the agent) was “D-ECM-induced phenotype was lost”; in assay [2], “D-ECM-induced phenotype was lost”.
On to `C[C@@H]1C[C@@H]([C@H](O)CC2CC(=O)NC(=O)C2)C(=O)[C@@H](C)C1` [cycloheximide], for which, in assay [1] (overnight treatment with protein synthesis inhibitor, model not specified), the “α-SMA protein outcome in naïve fibroblasts re-plated in D-ECM, in words” value is “did not influence outcomes”.
In the case of “ALULA, functional-blocking anti αvβ5 integrin antibody”, in assay [3], the intracellular levels of α5β1 integrin activity, PDAC worked out at 0%; the intracellular levels of α5β1 integrin activity, RCC amounted to 60%; the α5β1 integrin activity localized away from 3D-adhesions, PDAC (relative to D-ECM, a.u.=1) is 0.32 a.u; the α5β1 integrin activity localized away from 3D-adhesions, RCC (relative to D-ECM, a.u.=1) was determined as 0.82 a.u. In assay [3], this molecule showed a α-SMA expression, PDAC, median (normalized to untreated D-ECM) of 0.29 a.u; a α-SMA expression, RCC, median (normalized to untreated D-ECM) of 0.58 a.u; a α-SMA stress fiber localization, PDAC, median (normalized to untreated D-ECM) of 0.54 a.u; a α-SMA stress fiber localization, RCC, median (normalized to untreated D-ECM) of 0.67 a.u. In assay [4], this molecule yielded a percentage of FAK-/- murine fibroblasts in mD-ECM undergoing myofibroblastic activation of 14%, a percentage of murine cells in mD-ECM with myofibroblast activation under FAK inhibitor PF573,228 of 23% and a percentage of murine fibroblasts in mD-ECM undergoing myofibroblastic activation of 55%.
As for “SNAKA51, conformation-dependent anti-active α5 integrin functional antibody”, in assay [5], the α-SMA expression, PDAC, median (normalized to untreated D-ECM) was determined as 0.32 a.u; the α-SMA expression, RCC, median (normalized to untreated D-ECM) came out at 0.43 a.u; the α-SMA stress fiber localization, PDAC, median (normalized to untreated D-ECM) is 0.56 a.u; the α-SMA stress fiber localization, RCC, median (normalized to untreated D-ECM) was determined as 0.93 a.u.
In assay [5], “mAb16, functional blocking anti-α5β1 integrin antibody” yielded a α-SMA expression, PDAC, median (normalized to untreated D-ECM) of 0.71 a.u; a α-SMA expression, RCC, median (normalized to untreated D-ECM) of 0.53 a.u; a α-SMA stress fiber localization under FAK inhibitor PF573,228, PDAC of 49%; a α-SMA stress fiber localization under FAK inhibitor PF573,228, RCC of 45%. In assay [5], this molecule had a α-SMA stress fiber localization, PDAC, median (normalized to untreated D-ECM) of 0.77 a.u and a α-SMA stress fiber localization, RCC, median (normalized to untreated D-ECM) of 0.89 a.u.

(Values after patent US20230152325A1, “Active Alpha-5-Beta-1 Integrin As A Biomarker For Enhancing Tumor Treatment Efficacy” (Institute For Cancer Research d/b/a The Research Institute …, priority 2016, published 2023).)
